Here are results for two proteins from publication PMC11675717, “Evolutionary Adaptations in Biliverdin Reductase B: Insights into Coenzyme Dynamics and Catalytic Efficiency” (International Journal of Molecular Sciences, 2024).

Substrate in the series: Cc1cc2nc3c(=O)[nH]c(=O)nc-3n(C[C@H](O)[C@H](O)[C@H](O)COP(=O)(O)OP(=O)(O)OC[C@H]3O[C@@H](n4cnc5c(N)ncnc54)[C@H](O)[C@@H]3O)c2cc1C
The series is described as follows: purified protein. Type of series: biochemical, Homo sapiens. The conditions noted are these: co-substrate NADPH 400 µM; enzyme 20 µM.

What is called Km is the substrate concentration at which the rate is half of its maximum. In general, kcat refers to the maximal rate divided by the concentration of active sites.

B1: human BLVRB (Homo sapiens) (protein)
chain: AVKKIAIFGATGQTGLTTLAQAVQAGYEVTVLVRDSSRLPSEGPRPAHVVVGDVLQAADVDKTVAGQDAVIVLLGTRNDLSPTTVMSEGARNIVAAMKAHGVDKVVACTSAFLLWDPTKVPPRLQAVTDDHIRMHKVLRESGLKYVAVMPPHIGDQPLTGAYTVTLDGRGPSRVISKHDLGHFMLRCLTTDEYDGHSTYPSHQYQ
notes: pET21
Turning to B1, the Km was found to be 242 ± 36 µM and the catalytic constant (kcat) was found to be 0.16 ± 0.03 s⁻¹.

B2: human BLVRB (Homo sapiens; T164S) (protein)
chain: AVKKIAIFGATGQTGLTTLAQAVQAGYEVTVLVRDSSRLPSEGPRPAHVVVGDVLQAADVDKTVAGQDAVIVLLGTRNDLSPTTVMSEGARNIVAAMKAHGVDKVVACTSAFLLWDPTKVPPRLQAVTDDHIRMHKVLRESGLKYVAVMPPHIGDQPLTGAYSVTLDGRGPSRVISKHDLGHFMLRCLTTDEYDGHSTYPSHQYQ
notes: pET21
Consider B2, for which the Michaelis-Menten constant (Km) is 171 ± 33 µM and the kcat is 0.1 ± 0.03 s⁻¹.
